These results are taken from US20060083685 (published 2006).

One assay has as its target T1, delta opioid receptor (rat, UniProt P33533).
T1 chain: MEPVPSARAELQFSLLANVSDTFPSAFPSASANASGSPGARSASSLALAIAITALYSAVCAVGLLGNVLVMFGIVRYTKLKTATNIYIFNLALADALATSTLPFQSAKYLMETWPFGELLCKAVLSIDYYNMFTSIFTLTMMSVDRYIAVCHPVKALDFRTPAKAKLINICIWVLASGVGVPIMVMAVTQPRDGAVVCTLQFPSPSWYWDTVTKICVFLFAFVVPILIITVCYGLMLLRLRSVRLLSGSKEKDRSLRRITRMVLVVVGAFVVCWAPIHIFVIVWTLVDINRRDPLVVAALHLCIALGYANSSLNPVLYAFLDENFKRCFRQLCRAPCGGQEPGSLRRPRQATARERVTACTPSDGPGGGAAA
The experiment in a line: competition, radioligand, 25C.

Another assay has as its target T2, mu opioid receptor (rat, UniProt P33535).
T2 chain: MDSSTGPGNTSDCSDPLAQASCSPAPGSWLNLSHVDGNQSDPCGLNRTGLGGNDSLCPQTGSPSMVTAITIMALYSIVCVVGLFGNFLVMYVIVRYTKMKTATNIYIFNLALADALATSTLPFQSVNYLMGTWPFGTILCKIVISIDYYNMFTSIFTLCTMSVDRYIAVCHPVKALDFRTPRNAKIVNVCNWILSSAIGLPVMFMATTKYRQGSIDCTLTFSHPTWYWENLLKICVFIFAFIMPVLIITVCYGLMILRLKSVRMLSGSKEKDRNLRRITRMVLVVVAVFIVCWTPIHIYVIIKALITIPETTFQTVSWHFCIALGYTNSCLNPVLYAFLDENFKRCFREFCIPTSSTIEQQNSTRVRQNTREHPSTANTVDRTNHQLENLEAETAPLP
Put plainly: competition, radioligand, 25C.

Square brackets hold non-standard residues; d marks the D form. Ends that are not written are not given here.

As to YC[dF]G-NH2 (also: rhenium complex) [Tyr-Cys-D-Phe-Gly-NH2], the binding result in the assay with delta opioid receptor and with mu opioid receptor was “no binding” throughout.

As for YG[dF]C-NH2 (also: rhenium complex) [Tyr-Gly-D-Phe-Cys-NH2], the binding result with delta opioid receptor and in the assay with mu opioid receptor was “no binding” in each case.
